According to US20260242735A1 (UNIVERSIT T BASEL, published 2026):

What was measured:
[1] = molecular target: CD33 variant F21Q (recombinant, biotinylated) (human, UniProt P20138 22-259, biotinylated with EZ-Link Sulfo-NHS-LC-Biotin (sites not given)); test: BLI (Octet R8), avidity format: biotinylated CD33 on streptavidin sensor, Refmab #4 as analyte at 500 nM;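 also: analyte association recorded over 300 s, followed by a 900 s dissociation phase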
[2] = molecular target: CD33 variant W22E (recombinant, biotinylated) (human, UniProt P20138 18-259, biotinylated with EZ-Link Sulfo-NHS-LC-Biotin (sites not given)); test: as above
[3] = molecular target: CD33 variant F21N (recombinant, biotinylated) (human, UniProt P20138 22-259, biotinylated with EZ-Link Sulfo-NHS-LC-Biotin (sites not given)); test: as above
[4] = molecular target: CD33 variant W22R (recombinant, biotinylated) (human, UniProt P20138 18-259, biotinylated with EZ-Link Sulfo-NHS-LC-Biotin (sites not given)); test: as above
[5] = molecular target: CD33 variant N20E (recombinant, biotinylated) (human, UniProt P20138 21-259, biotinylated with EZ-Link Sulfo-NHS-LC-Biotin (sites not given)); test: as above
[6] = molecular target: CD33 variant F21L (recombinant, biotinylated) (human, UniProt P20138 22-259, biotinylated with EZ-Link Sulfo-NHS-LC-Biotin (sites not given)); test: as above
[7] = molecular target: CD33 variant Y50R (recombinant, biotinylated) (human, UniProt P20138 18-259, biotinylated with EZ-Link Sulfo-NHS-LC-Biotin (sites not given)); test: as above
[8] = molecular target: CD33 variant F21S (recombinant, biotinylated) (human, UniProt P20138 22-259, biotinylated with EZ-Link Sulfo-NHS-LC-Biotin (sites not given)); test: as above
[9] = molecular target: CD33 variant F21M (recombinant, biotinylated) (human, UniProt P20138 22-259, biotinylated with EZ-Link Sulfo-NHS-LC-Biotin (sites not given)); test: as above
[10] = molecular target: CD33 variant W22T (recombinant, biotinylated) (human, UniProt P20138 18-259, biotinylated with EZ-Link Sulfo-NHS-LC-Biotin (sites not given)); test: as above
[11] = molecular target: CD33 variant F21I (recombinant, biotinylated) (human, UniProt P20138 22-259, biotinylated with EZ-Link Sulfo-NHS-LC-Biotin (sites not given)); test: as above
[12] = molecular target: CD33 variant N20H (recombinant, biotinylated) (human, UniProt P20138 21-259, biotinylated with EZ-Link Sulfo-NHS-LC-Biotin (sites not given)); test: as above
[13] = molecular target: CD33 double variant Y50H_H49H (recombinant, biotinylated) (human, UniProt P20138 18-259, biotinylated with EZ-Link Sulfo-NHS-LC-Biotin (sites not given)); test: as above
[14] = molecular target: T1, CD33 wild type (recombinant, biotinylated) (human, UniProt P20138 18-259, biotinylated with EZ-Link Sulfo-NHS-LC-Biotin (sites not given)); test: as above
T1 construct: also called WT; CD33 wt

[15] = molecular target: CD33 variant W22D (recombinant, biotinylated) (human, UniProt P20138 18-259, biotinylated with EZ-Link Sulfo-NHS-LC-Biotin (sites not given)); test: as above
[16] = molecular target: CD33 variant Y50D (recombinant, biotinylated) (human, UniProt P20138 18-259, biotinylated with EZ-Link Sulfo-NHS-LC-Biotin (sites not given)); test: as above
[17] = molecular target: CD33 variant F21V (recombinant, biotinylated) (human, UniProt P20138 22-259, biotinylated with EZ-Link Sulfo-NHS-LC-Biotin (sites not given)); test: as above
[18] = molecular target: CD33 variant W22K (recombinant, biotinylated) (human, UniProt P20138 18-259, biotinylated with EZ-Link Sulfo-NHS-LC-Biotin (sites not given)); test: as above
[19] = molecular target: CD33 variant N20K (recombinant, biotinylated) (human, UniProt P20138 21-259, biotinylated with EZ-Link Sulfo-NHS-LC-Biotin (sites not given)); test: as above
[20] = molecular target: CD33 variant F21H (recombinant, biotinylated) (human, UniProt P20138 22-259, biotinylated with EZ-Link Sulfo-NHS-LC-Biotin (sites not given)); test: as above
[21] = molecular target: CD33 variant N20V (recombinant, biotinylated) (human, UniProt P20138 21-259, biotinylated with EZ-Link Sulfo-NHS-LC-Biotin (sites not given)); test: as above
[22] = molecular target: CD33 variant N20G (recombinant, biotinylated) (human, UniProt P20138 21-259, biotinylated with EZ-Link Sulfo-NHS-LC-Biotin (sites not given)); test: as above
[23] = molecular target: CD33 variant Y50K (recombinant, biotinylated) (human, UniProt P20138 18-259, biotinylated with EZ-Link Sulfo-NHS-LC-Biotin (sites not given)); test: as above
[24] = molecular target: CD33 variant F44P (recombinant, biotinylated) (human, UniProt P20138 18-259, biotinylated with EZ-Link Sulfo-NHS-LC-Biotin (sites not given)); test: as above
[25] = molecular target: T2, CD33 variant W22R on base-edited human CD34+ HSPCs (human, UniProt P20138 18-364); test: flow cytometry sorting and NGS of sgRNA-E base-edited human CD34+ HSPCs
T2 construct: also called sgRNA-E edited CD33

human wild-type CD33 = molecular target: T3, human wild-type CD33 (human, UniProt P20138 18-364); test: flow cytometry, IgG at 0.25 ug/ml on HEK293-T cells expressing CD33 against vector alone
T3 construct: also called SIGLEC3; P67
T3 sequence (P20138 18-364 limits assumed): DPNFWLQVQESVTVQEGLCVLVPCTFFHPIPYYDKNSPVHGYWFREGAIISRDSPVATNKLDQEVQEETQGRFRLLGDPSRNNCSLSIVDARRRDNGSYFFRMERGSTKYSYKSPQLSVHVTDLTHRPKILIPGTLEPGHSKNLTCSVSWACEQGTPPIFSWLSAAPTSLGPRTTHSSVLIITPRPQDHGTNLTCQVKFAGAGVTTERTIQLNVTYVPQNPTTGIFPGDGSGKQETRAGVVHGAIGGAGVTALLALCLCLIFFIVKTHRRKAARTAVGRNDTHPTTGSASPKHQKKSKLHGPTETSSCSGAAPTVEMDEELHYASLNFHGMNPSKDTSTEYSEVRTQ

CD33 variant W22D (recombinant, biotinylated), sequence (P20138 other isoform, or with tags, fused parts or gaps W22D W22D): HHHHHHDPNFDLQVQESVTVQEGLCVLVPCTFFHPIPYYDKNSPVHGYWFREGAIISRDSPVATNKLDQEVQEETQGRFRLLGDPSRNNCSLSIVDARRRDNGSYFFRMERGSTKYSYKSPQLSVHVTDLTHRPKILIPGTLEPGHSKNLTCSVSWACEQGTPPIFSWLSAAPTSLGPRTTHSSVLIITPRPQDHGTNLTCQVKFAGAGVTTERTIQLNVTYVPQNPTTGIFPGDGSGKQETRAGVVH
CD33 variant Y50R (recombinant, biotinylated), sequence (P20138 other isoform, or with tags, fused parts or gaps Y50R Y50R): as the sequence (P20138 other isoform, or with tags, fused parts or gaps W22D W22D) above, with D11W, Y39R counted along it
CD33 variant W22E (recombinant, biotinylated), sequence (P20138 other isoform, or with tags, fused parts or gaps W22E W22E): as the sequence (P20138 other isoform, or with tags, fused parts or gaps W22D W22D) above, with D11E counted along it
CD33 variant F21Q (recombinant, biotinylated), sequence (P20138 other isoform, or with tags, fused parts or gaps F21Q F21Q): as the sequence (P20138 other isoform, or with tags, fused parts or gaps W22D W22D) above, with F10Q, D11W counted along it
CD33 variant W22R (recombinant, biotinylated), sequence (P20138 other isoform, or with tags, fused parts or gaps W22R W22R): as the sequence (P20138 other isoform, or with tags, fused parts or gaps W22D W22D) above, with D11R counted along it
CD33 variant F21H (recombinant, biotinylated), sequence (P20138 other isoform, or with tags, fused parts or gaps F21H F21H): as the sequence (P20138 other isoform, or with tags, fused parts or gaps W22D W22D) above, with F10H, D11W counted along it
CD33 variant Y50K (recombinant, biotinylated), sequence (P20138 other isoform, or with tags, fused parts or gaps Y50K Y50K): as the sequence (P20138 other isoform, or with tags, fused parts or gaps W22D W22D) above, with D11W, Y39K counted along it
CD33 variant N20H (recombinant, biotinylated), sequence (P20138 other isoform, or with tags, fused parts or gaps N20H N20H): as the sequence (P20138 other isoform, or with tags, fused parts or gaps W22D W22D) above, with N9H, D11W counted along it
CD33 variant N20V (recombinant, biotinylated), sequence (P20138 other isoform, or with tags, fused parts or gaps N20V N20V): as the sequence (P20138 other isoform, or with tags, fused parts or gaps W22D W22D) above, with N9V, D11W counted along it
T2 sequence (P20138 18-364 W22R limits assumed): as the sequence (P20138 18-364 limits assumed) above, with W5R counted along it
CD33 variant F44P (recombinant, biotinylated), sequence (P20138 other isoform, or with tags, fused parts or gaps F44P F44P): as the sequence (P20138 other isoform, or with tags, fused parts or gaps W22D W22D) above, with D11W, F33P counted along it
T1 sequence (P20138 other isoform, or with tags, fused parts or gaps): as the sequence (P20138 other isoform, or with tags, fused parts or gaps W22D W22D) above, with D11W counted along it
CD33 variant F21N (recombinant, biotinylated), sequence (P20138 other isoform, or with tags, fused parts or gaps F21N F21N): as the sequence (P20138 other isoform, or with tags, fused parts or gaps W22D W22D) above, with F10N, D11W counted along it
CD33 variant N20K (recombinant, biotinylated), sequence (P20138 other isoform, or with tags, fused parts or gaps N20K N20K): as the sequence (P20138 other isoform, or with tags, fused parts or gaps W22D W22D) above, with N9K, D11W counted along it
CD33 variant F21L (recombinant, biotinylated), sequence (P20138 other isoform, or with tags, fused parts or gaps F21L F21L): as the sequence (P20138 other isoform, or with tags, fused parts or gaps W22D W22D) above, with F10L, D11W counted along it
CD33 variant F21S (recombinant, biotinylated), sequence (P20138 other isoform, or with tags, fused parts or gaps F21S F21S): as the sequence (P20138 other isoform, or with tags, fused parts or gaps W22D W22D) above, with F10S, D11W counted along it
CD33 variant Y50D (recombinant, biotinylated), sequence (P20138 other isoform, or with tags, fused parts or gaps Y50D Y50D): as the sequence (P20138 other isoform, or with tags, fused parts or gaps W22D W22D) above, with D11W, Y39D counted along it

B1: Refmab #4 (antibody, human IgG1, V domains shown)
VH: QVQLVQSGAEVKKPGESVKVSCKASGYTFTNYGMNWVKQAPGQGLEWMGWINTYTGEPTYADKFQGRVTMTTDTSTSTAYMEIRNLGGDDTAVYYCARWSWSDGYYVYFDYWGQGTSVTVSS
VL: DIVMTQSPDSLTVSLGERTTINCKSSQSVLDSSTNKNSLAWYQQKPGQPPKLLLSWASTRESGIPDRFSGSGSGTDFTLTIDSPQPEDSATYYCQQSAHFPITFGQGTRLEIK
[1]
  % WT binding: 122 % WT binding
[2]
  % WT binding: 136 % WT binding
[3]
  % WT binding: 108 % WT binding
[4]
  % WT binding: 87.2 % WT binding
[5]
  % WT binding: 111 % WT binding
[6]
  % WT binding: 88.3 % WT binding
[7]
  % WT binding: 0 % WT binding
[8]
  % WT binding: 106 % WT binding
[9]
  % WT binding: 122 % WT binding
[10]
  % WT binding: 100 % WT binding
[11]
  % WT binding: 91 % WT binding
[12]
  % WT binding: 87.7 % WT binding
[13]
  % WT binding: 0 % WT binding
[14]
  % WT binding: 100 % WT binding
[15]
  % WT binding: 129 % WT binding
[16]
  % WT binding: 0 % WT binding
[17]
  % WT binding: 96 % WT binding
[18]
  % WT binding: 99.3 % WT binding
[19]
  % WT binding: 79.4 % WT binding
[20]
  % WT binding: 103 % WT binding
[21]
  % WT binding: 99.5 % WT binding
[22]
  % WT binding: 89 % WT binding
[23]
  % WT binding: 0 % WT binding
[24]
  % WT binding: 73.9 % WT binding

B2: Refmab #3 (antibody, V domains shown)
VH: QVQLVQSGAEVKKPGSSVKVSCKASGYTFTDYNMHWVRQAPGQGLEWIGYIYPYNGGTGYNQKFKSKATITADESTNTAYMELSSLRSEDTAVYYCARGRPAMDYWGQGTLVTVSS
VL: DIQMTQSPSSLSASVGDRVTITCRASESVDNYGISFMNWFQQKPGKAPKLLIYAASNQGSGVPSRFSGSGSGTDFTLTISSLQPDDFATYYCQQSKEVPWTFGQGTKVEIK
notes: Full-length MAb format, human IgG1 Fc silent (PG-LALA)
[25]
  binding result: no binding
Human wild-type CD33
  Signal:Background: 35 signal:background ratio
